Results reported in paper PMC3967050 (Genes & Development, 2014).
Square brackets hold non-standard residues; d marks the D form. Ends that are not written are not given here. Arg(Me2a) = CN(C)C(=N)NCCC[C@H](N)C(=O)O; Lys(Me3) = C[N+](C)(C)CCCC[C@H](N)C(=O)O; Arg(Me2s) = CN=C(NC)NCCC[C@H](N)C(=O)O; Arg(Me) = CNC(=N)NCCC[C@H](N)C(=O)O

Columns and labels:
[1] = molecular target: Human Spindlin1 50–262 (SPIN1_(50–262)) (human) (UniProt Q9Y657); test: ITC
SPIN1_50–262 = SPIN1_50–262 (Homo sapiens, UniProt Q9Y657); test: ITC of SPIN1_50–262 with synthetic peptides; type: binding; conditions: relative to H3 K4me3–R8me2a
SPIN1_50–262, sequence (Q9Y657 50-262): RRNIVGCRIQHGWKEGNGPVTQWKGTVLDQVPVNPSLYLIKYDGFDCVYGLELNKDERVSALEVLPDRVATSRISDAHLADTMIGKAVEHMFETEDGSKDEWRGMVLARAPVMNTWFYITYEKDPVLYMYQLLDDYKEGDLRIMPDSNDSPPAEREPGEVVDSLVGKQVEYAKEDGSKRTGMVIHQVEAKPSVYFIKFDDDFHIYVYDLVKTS

[2] = molecular target: bulky arginine mutations of residues W72, Y98, and F251; test: ITC
[3] = molecular target: T1, Human Spindlin1 50–262 (SPIN1_(50–262)) (human, UniProt Q9Y657 50-262); test: thermo-fluor stability assay
T1 sequence (Q9Y657 50-262): as above

SPIN1_(50–262) E142A = SPIN1_(50–262) E142A (human, UniProt Q9Y657 50-262, E142A); test: ITC
SPIN1_(50–262) E142A, sequence (Q9Y657 50-262 E142A): as the sequence (Q9Y657 50-262) above, with E93A counted along it

SPIN1_(50–262) D184A = SPIN1_(50–262) D184A (human, UniProt Q9Y657 50-262, D184A); test: ITC
SPIN1_(50–262) D184A, sequence (Q9Y657 50-262 D184A): as the sequence (Q9Y657 50-262) above, with D135A counted along it

[4] = molecular target: T1, Human Spindlin1 50–262 (SPIN1_(50–262)); test: ITC

Human Spindlin1 50–262 (SPIN1_(50–262)) (human), sequence (Q9Y657 50-262): as the sequence (Q9Y657 50-262) above

H3 K4me2–R8me2a peptide
Kd [1]: 510 nM

C[C@H](N)C(=O)N[C@@H](CCCNC(=N)N)C(=O)N[C@H](C(=O)N[C@@H](CCCCN(C)C)C(=O)N[C@@H](CCC(N)=O)C(=O)N[C@H](C(=O)N[C@@H](C)C(=O)N[C@@H](CCCNC(=N)N(C)C)C(=O)N[C@@H](CCCCN)C(=O)N[C@@H](CO)C(=O)O)[C@@H](C)O)[C@@H](C)O [K4me2–R8me2a]
affinity reduction upon loss of one methyl group (SPIN1_50–262): ~10 fold

H3_(1–10)K4me3R8me2a peptide (from UniProt P68431 2-11)
fold drop of affinity against wild-type SPIN1(50–262) [2]: 10 to 40 fold

B1: H3_(1–10)K4me3R8me2a peptide (peptide, UniProt P68431 2-11, looked up)
peptide: ART[Lys(Me3)]QTA[Arg(Me2a)]KS
Tm of SPIN1(50–262) with the peptide [3]: 63.5 °C | fold reduction of binding affinity against wild-type SPIN1(50–262) (SPIN1_(50–262) E142A): ~3 fold | fold reduction of binding affinity against wild-type SPIN1(50–262) (SPIN1_(50–262) D184A): ~90 fold

B2: H3_(1–10)K4me3 peptide (peptide)
peptide: ART[Lys(Me3)]QTARKS
reduction of Tm against H3(1–10)K4me3R8me2a [3]: 4 °C | Kd [4]: ~147 nM

B3: TCF4_(458–469) peptide (peptide)
peptide: RRKKKCVRYIQG
Kd [4]: 3900 nM

B4: H3_(1–10)K4me3R8me1 peptide (peptide)
peptide: ART[Lys(Me3)]QTA[Arg(Me)]KS
Kd [4]: ~139 nM

B5: H3_(1–10)K4me3R8me2s peptide (peptide)
peptide: ART[Lys(Me3)]QTA[Arg(Me2s)]KS
reduction of Tm against H3(1–10)K4me3R8me2a [3]: 2 °C
